For one series, the system named is KPL4. Put plainly: KPL4-GFP orthotopic breast cancer model, response to chemotherapy. It is filed as in vivo, SCID/beiz mice. To be noted: following completion of chemotherapy regimen; tumors subsequently recurred. As for the experimental part: Several cancer models that show significant regression in response to chemotherapy followed by tumor relapse after the cessation of therapy (FIG. 1) were generated and used to study the cells that are responsible for tumor re-initiation. These cells are tumor reinitiating cells (TRICs). In order to generate the models, GFP labeled human tumor cells were transplanted subcutaneously, and when tumor size reached ˜200 mm^3, mice were treated with either vehicle or chemotherapy as shown in the respective models. GFP+ tumor cells were isolated from regressed or vehicle treated tumors by FACS-sorting after enzymatic digestion and dissociation. Tumors were collected a minimum of one week after the last dose of chemotherapy and before the resumption of tumor growth.
GFP-expressing sublines of the human breast cancer cell line KPL4 were transplanted orthotropically to the mammary fat pad of SCID/beiz mice. For the KPL4 model, chemotherapy consisted of Paclitaxel (20 mg/kg, i.v. every other day for 5 doses). FIG. 2C (data presented as mean tumor volume±SEM, n=12 mice/group).

In a further series the test system is NRG1/HER3 signaling. Put plainly: HER4-ECD added to serum starved LKPH1 and LKPH2 cells, Western blotting. The format is cell-based, mouse. To be noted: HER4ECD 2 mg/ml, 48 hours.
Series [1] deals with LSL-K-ras^G12D; p53^Fl/+ lung tumors. The experiment in a line: LSL-K-ras G12D; p53 Fl/+ lung tumor model, micro-CT tumor burden. It is filed as in vivo, mice.
Series [2] relates to LSL-K-ras^G12D; p53^Fl/Fl lung tumors. Put plainly: LSL-K-ras G12D; p53 Fl/Fl lung tumor model, micro-CT tumor burden. It is filed as in vivo, mice.
The test system of series [3] is LSL-K-ras^G12D lung tumors. To be noted: LSL-K-ras^G12D mice (Oliver et al., 2010); cited from earlier work.
Series [4] concerns LSL-K-ras^G12D lung tumors. Put plainly: LSL-K-ras G12D x Z/EG mouse NSCLC model, FACS of GFP-positive tumor cells. It is filed as in vivo. The conditions noted are these: one week after final dose of cisplatin, vs vehicle controls. As for the experimental part: In addition, the LSL-K-ras^G12D genetically engineered mouse model of NSCLC (Jackson et al., 2001) was crossed to the Z/EG Cre-reporter strain (Novak et al., 2000) and used in this study. Cisplatin (7 mg/kg i.p. every 7 days for 3 doses) was started 12 weeks after AdenoCre infection of the lungs (ie. tumor initiation). Lungs were collected 1 week after the last dose of chemotherapy and tumor cells were isolated by FACS after enzymatic digestion and dissociation. […] FIG. 2D (data presented as the average number of GFP positive cells per lung±SEM, n=6/group).

Series [5] has as its system Calu3-shHER3 xenograft tumors. Put plainly: Calu3-shHER3 xenograft tumor growth. It is filed as in vivo, mice. To be noted: dox treatment; vs sucrose TDT=11 days.
In another series the test system is HER3. Put plainly: HER3 knockdown in Calu3-shHER3 cells, qPCR and Western blot. The format is cell-based, human.
The subject of the next series is H1299-shNRG1.2. Put plainly: H1299-shNRG1.2 in vivo study. To be noted: magnitude of growth inhibition smaller than with shNRG1.
A further series relates to NRG1 mRNA. The experiment in a line: NRG1 mRNA levels in H1299 subline expressing shNRG1.2. The format is cell-based, human. The conditions noted are these: compared with shNRG1.
In a further series the test system is H441 cells. Put plainly: Exogenous NRG1 stimulation of serum starved H441 cells, Western blotting. The conditions noted are these: 1 uM NRG1, ten minutes. The format is cell-based, human.
The subject of another series is HER4. The experiment in a line: HER4 knockdown in Calu3-shHER4 cells, qPCR. The format is cell-based, human. The conditions noted are these: dox 2 ug/ml.
Series [6] has as its system Calu3-shHer4 xenograft tumors. Put plainly: Calu3-shHER4 xenograft tumor growth. It is filed as in vivo, mice. To be noted: dox vs sucrose.

As to `CC(=O)O[C@H]1C(=O)[C@@]2(C)[C@H]([C@H](OC(=O)c3ccccc3)[C@]3(O)C[C@H](OC(=O)[C@H](O)[C@@H](NC(=O)c4ccccc4)c4ccccc4)C(C)=C1C3(C)C)[C@]1(OC(C)=O)CO[C@@H]1C[C@@H]2O` [Paclitaxel], the “tumor size vs vehicle-treated mice” value in the series on KPL4 is given as “significantly smaller”.
As to “HER4-ECD: fusion of the human HER4 extracellular domain to murine IgG2A Fc; ligand trap to sequester NRG1”, the p-HER3 levels entry in the series on NRG1/HER3 signaling is reported as “diminished”. Moreover, in [1] (cisplatin+HER4-ECD combination), the “tumor growth (average tumor burden and tumor growth rate)” value is “significant inhibition of tumor growth”. Also, in [2] (HER4-ECD treatment alone), the “effect on tumor growth” value is “no effect”. Moreover, the “tumor burden by micro-CT” value in series [2] (day 28, cisplatin+HER4-ECD vs cisplatin+vehicle and all other groups) is listed as “significant reduction in tumor burden”.
For `N.N.[Cl][Pt][Cl]` [cisplatin], in series [3], the survival entry is given as “does not result in prolonged survival”. In addition, in [1] (cisplatin+control IgG2A), the “average tumor burden at conclusion of study and overall tumor growth rate vs vehicle” value is listed as “not significantly different”. Also, the “number of GFP-positive tumor cells per lung” value in series [4] is listed as “significant decrease in tumor cell number”.

B1: shHER3: dox-inducible shRNA to HER3 (SEQ ID NO: 7 and 8) (nucleic acid)
chain 1: GATCCCCAAGAGGATGTCAACGGTTATTCAAGAGATAACCGTTGACATCCTCTTTTTTTTGGAAA
chain 2: AGCTTTTCCAAAAAAAAGAGGATGTCAACGGTTATCTCTTGAATAACCGTTGACATCCTCTTGGG
As to B1, the “time to doubling (TDT)” value in series [5] amounted to 19 days. Further, in the series with HER3 (dox 2 ug/ml, qPCR), the HER3 transcript levels result is reported as “decreased”. In addition, the “extent of p-AKT down-regulation” value in the series on HER3 (in the presence of dox, compared with Calu3-shHER4) is reported as “much greater”.

B2: shNRG1.2: a different doxycycline-inducible shRNA to NRG1 (SEQ ID NO: 3 and 4) (nucleic acid)
chain 1: GATCCCCGAGTATATGTGCAAAGTGATTCAAGAGATCACTTTGCACATATACTCTTTTTTGGAAA
chain 2: AGCTTTTCCAAAAAAGAGTATATGTGCAAAGTGATCTCTTGAATCACTTTGCACATATACTCGGG
Turning to B2, the “response to chemotherapy upon NRG1 knockdown” value with H1299-shNRG1.2 is reported as “enhanced response to chemotherapy”. Also, the “reduction in NRG1 mRNA levels” value in the series with NRG1 mRNA was “more modest reduction”.

B3: NRG1: recombinant human NRG1 beta-1 extracellular domain (R&D systems), exogenous ligand (protein, UniProt Q02297 20-242, looked up)
extracellular domain: SGKKPESAAGSQSPALPPRLKEMKSQESAAGSKLVLRCETSSEYSSLRFKWFKNGNELNRKNKPQNIKIQKKPGKSELRINKASLADSGEYMCKVISKLGNDSASANITIVESNEIITGMPASTEGAYVSSESPIRISVSTEGANTSSSTSTSTTGTSHLVKCAEKEKTFCVNGGECFMVKDLSNPSRYLCKCQPGFTGARCTENVPMKVQNQEKAEELYQKR
modifications: extracellular domain
notes: recombinant human NRG1 beta-1 extracellular domain (R&D systems), exogenous ligand
Regarding B3, in the series on H441 cells, the “levels of p-Stat3 or p-Mek1/2” value is “no detectable changes”; the “p-HER3 and p-AKT” value was “increase”.

B4: shHER4: dox-inducible shRNA to HER4 (SEQ ID NO: 5 and 6) (nucleic acid)
chain 1: GATCCCCGATCACAACTGCTGCTTAATTCAAGAGATTAAGCAGCAGTTGTGATCTTTTTTGGAAA
chain 2: AGCTTTTCCAAAAAAGATCACAACTGCTGCTTAATCTCTTGAATTAAGCAGCAGTTGTGATCGGG
Consider B4, for which the HER4 transcript levels entry in the series with HER4 is “decreased”. Also, in series [6], the “inhibition of tumor growth” value was “not a notable inhibition of tumor growth”.

The record behind these values is US9556249B2, “Neuregulin antagonists and use thereof in treating cancer” (Genentech, Inc., priority 2010, dated 2017).
